The record followed here is US9340579B2, “DPP-4 inhibitor” (NIPPI, INCORPORATED, priority 2011, dated 2016).

Read-outs that look alike come from different tables or passages of the source. Square brackets hold non-standard residues; d marks the D form. Ends that are not written are not given here. Peptide text beside a SMILES is read from it. Hyp = O=C(O)[C@@H]1C[C@@H](O)CN1

The target in experiment [1] is T1, DPP-4 (manufactured by Sigma, derived from porcine kidney) (Sus scrofa, UniProt P22411).
T1 construct: derived from porcine kidney; purchased Sigma; host or cells: porcine kidney (tissue-derived)
Briefly: DPP-4 inhibition rate and IC50 measurement, fluorescence of AMC freed from Gly-Pro-MCA. As to conditions: for inhibition at 350 µg/mL / Inhibition rate (%) at 0.35 mg/ml time: sample 0.35 mg/ml, substrate Gly-Pro-MCA, pH 7.5, 37° C.; for inhibition at 350 µg/mL: read-out: Inhibition rate (%) at 0.35 mg/ml time. The format is biochemical. The procedure: A sample liquid 35 μl obtained by dissolving a sample 1 mg in 50 mM tris-hydrochloric acid buffer (pH 7.5) 1 ml and DPP-4 (manufactured by Sigma, derived from porcine kidney; 8.6 mU/ml) 15 μl that had been dissolved in 50 mM tris-hydrochloric acid buffer (pH 7.5) were mixed in a microtiter plate well (manufactured by NUNC, trade name “237015”) and incubated at 37° C. for 10 minutes.
Thereto, 50 μl of a substrate solution (one obtained by dissolving glycyl-Pro-4-methylcoumarin-7-amide (Gly-Pro-MCA) in 50 mM tris-hydrochloric acid buffer (pH 7.5) so as to be 10 μM) that had in advance heated to and kept at 37° C. was added, mixed, and allowed to react at 37° C. for 20 minutes.
The fluorescence intensity of 7-amino-4-methylcoumarin (AMC) that was freed by DPP-4 was measured with time by a microplate reader type fluorescence detector (manufactured by Corona Electric Co., Ltd., trade name “SH-9000”). Note that the measurement wavelength was an excitation wavelength of 380 nm and a measurement wavelength of 460 nm. Note that one obtained by using the same amount of 50 mM tris-hydrochloric acid buffer (pH 7.5) in replace of the sample was used as a control; and the fluorescence intensity thereof was measured.
The activity of DPP-4 was expressed by an average gradient of change in the amount of the fluorescence intensity during the reaction time; and, as for DPP-4 inhibition rate, difference obtained by, with the control as 100%, subtracting the activity of the sample from the above-mentioned control was calculated as an inhibition rate (%).
In accordance with the above method of measuring a DPP-4 inhibition rate, sample concentration was changed between 0.001 and 7.2 μmol/ml to obtain the inhibition rate, thereby calculating the 50% inhibitory concentration (IC50 value) of the activity of DPP-4.

For experiment [2], the target named is T2, DPP-4 (manufactured by Sigma, derived from porcine kidney) (porcine, UniProt P22411 38-766, limits assumed). Briefly: cell-based or functional assay.
Experiment [3] concerns the target T2, DPP-4 (manufactured by Sigma, derived …). Briefly: cell-based or functional assay. This is another data set of the same source.
Setting [4] is: Table 1, sample concentration changed between 0.001 and 7.2 μmol/ml, read-out: IC50 value.
Setting [5] is: Table 2, sample concentration changed between 0.001 and 7.2 μmol/ml, read-out: IC50 value.
[6] abbreviates: Table 1, sample concentration changed between 0.001 and 7.2 μmol/ml.

T1 sequence (P22411 whole entry): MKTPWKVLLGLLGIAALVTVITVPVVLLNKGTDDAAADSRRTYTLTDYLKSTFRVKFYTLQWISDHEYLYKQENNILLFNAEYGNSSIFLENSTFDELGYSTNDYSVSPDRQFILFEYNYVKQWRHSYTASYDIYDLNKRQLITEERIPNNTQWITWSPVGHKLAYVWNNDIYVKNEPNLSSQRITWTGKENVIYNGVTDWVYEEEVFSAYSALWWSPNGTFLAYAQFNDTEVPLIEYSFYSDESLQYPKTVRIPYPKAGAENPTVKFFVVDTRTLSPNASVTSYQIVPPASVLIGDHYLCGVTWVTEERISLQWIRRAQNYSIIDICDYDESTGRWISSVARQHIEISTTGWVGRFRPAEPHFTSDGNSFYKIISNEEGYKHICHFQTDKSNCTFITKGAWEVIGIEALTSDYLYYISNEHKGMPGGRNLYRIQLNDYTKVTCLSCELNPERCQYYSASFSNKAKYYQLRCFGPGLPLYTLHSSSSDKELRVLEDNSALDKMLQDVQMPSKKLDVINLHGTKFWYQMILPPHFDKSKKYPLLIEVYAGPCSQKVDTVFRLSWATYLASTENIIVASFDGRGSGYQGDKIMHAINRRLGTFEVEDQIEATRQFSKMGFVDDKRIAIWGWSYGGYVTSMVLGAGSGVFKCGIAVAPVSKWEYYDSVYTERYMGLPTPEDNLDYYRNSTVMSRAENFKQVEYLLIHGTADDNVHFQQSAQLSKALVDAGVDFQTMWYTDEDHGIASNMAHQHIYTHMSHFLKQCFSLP
T2 sequence (P22411 38-766 limits assumed): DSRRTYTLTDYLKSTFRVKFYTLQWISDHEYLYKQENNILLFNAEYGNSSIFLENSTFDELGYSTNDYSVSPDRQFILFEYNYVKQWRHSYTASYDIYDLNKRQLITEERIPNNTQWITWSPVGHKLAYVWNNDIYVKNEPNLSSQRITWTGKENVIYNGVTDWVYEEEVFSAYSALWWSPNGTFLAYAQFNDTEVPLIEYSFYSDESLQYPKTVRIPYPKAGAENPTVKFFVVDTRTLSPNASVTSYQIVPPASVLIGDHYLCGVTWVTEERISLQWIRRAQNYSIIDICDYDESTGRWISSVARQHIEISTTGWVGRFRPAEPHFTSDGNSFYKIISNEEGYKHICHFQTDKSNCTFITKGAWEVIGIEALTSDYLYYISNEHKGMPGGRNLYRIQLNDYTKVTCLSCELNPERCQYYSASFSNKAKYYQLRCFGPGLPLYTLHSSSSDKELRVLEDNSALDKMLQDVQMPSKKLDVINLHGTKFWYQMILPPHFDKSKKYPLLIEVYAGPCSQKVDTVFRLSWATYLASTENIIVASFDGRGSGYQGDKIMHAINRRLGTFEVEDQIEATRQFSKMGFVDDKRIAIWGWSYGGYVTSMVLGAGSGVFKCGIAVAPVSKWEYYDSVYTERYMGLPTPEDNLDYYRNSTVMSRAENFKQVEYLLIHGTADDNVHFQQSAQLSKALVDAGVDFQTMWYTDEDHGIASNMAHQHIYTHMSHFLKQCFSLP

In general, IC50 refers to the concentration that gives 50% inhibition. As for `C[C@H](NC(=O)[C@@H]1CCCN1C(=O)CN)C(=O)NCC(=O)N1CCC[C@H]1C(=O)N1C[C@H](O)C[C@H]1C(=O)O` [Example 3, Gly-Pro-Ala-Gly-Pro-Hyp] (H-GPAGP[Hyp]-OH; N-terminus and C-terminus assumed), the half-inhibitory concentration (IC50) in experiment [1] (setting [4]) was 70 µM. `C[C@H](NC(=O)[C@@H]1CCCN1C(=O)CN)C(=O)NCC(=O)O` [Example 9, Gly-Pro-Ala-Gly] (H-GPAG-OH; N-terminus and C-terminus assumed): in experiment [1] (setting [4]), the IC50 was found to be 150 µM. Turning to `C[C@H](NC(=O)CN)C(=O)O` [Example 11, Gly-Ala] (H-Gly-Ala-OH; N-terminus and C-terminus assumed), in experiment [1] (Table 1), the inhibition at 350 µg/mL came to 42.5%. The IC50 in experiment [1] (setting [4]) was 3340 µM. As to `CC(C)C[C@H](N)C(=O)N1CCC[C@H]1C(=O)O` [Example 16, Leu-Pro] (H-Leu-Pro-OH; N-terminus and C-terminus assumed), the inhibition at 350 µg/mL in experiment [1] (Table 2) came out at 92.1%. In addition, the IC50 in experiment [1] (setting [5]) was found to be 110 µM. On to `CC(C)C[C@H](N)C(=O)N1C[C@H](O)C[C@H]1C(=O)O` [Example 20, Leu-Hyp] (H-Leu-[Hyp]-OH), for which the inhibition at 350 µg/mL in experiment [1] (Table 2) turned out to be 48.6%. For the molecule `CC(C)C[C@H](N)C(=O)N1C[C@H](O)C[C@H]1C(=O)NCC(=O)O` [Example 21, Leu-Hyp-Gly] (H-Leu-[Hyp]-Gly-OH), the inhibition at 350 µg/mL in experiment [1] (Table 2) turned out to be 89.3%. In addition, the IC50 in experiment [1] (setting [5]) was found to be 130 µM. The like results for `CC[C@H](C)[C@H](N)C(=O)N1C[C@H](O)C[C@H]1C(=O)NCC(=O)O` [Example 22, Ile-Hyp-Gly] (H-Ile-[Hyp]-Gly-OH; N-terminus and C-terminus assumed) were, in that order, 71% and 500 µM. `CC(C)C[C@H](N)C(=O)N1C[C@H](O)C[C@H]1C(=O)NCC(=O)N1CCC[C@H]1C(=O)N[C@@H](C)C(=O)O` [Example 23, Leu-Hyp-Gly-Pro-Ala] (H-L[Hyp]GPA-OH): the inhibition at 350 µg/mL in experiment [1] (Table 2) turned out to be 52.1%. Further, the IC50 in experiment [1] (setting [5]) amounted to 830 µM. For the molecule `O=C(O)CNC(=O)[C@@H]1C[C@@H](O)CN1C(=O)[C@@H]1CCCN1` [Example 24, Pro-Hyp-Gly] (H-Pro-[Hyp]-Gly-OH; N-terminus and C-terminus assumed), in experiment [1] (Table 2), the inhibition at 350 µg/mL is 27.2%. The IC50 in experiment [1] (setting [5]) worked out at 4640 µM.

`C[C@H](N)C(=O)N1C[C@H](O)C[C@H]1C(=O)NCC(=O)O` [Example 25, Ala-Hyp-Gly] (H-Ala-[Hyp]-Gly-OH; N-terminus and C-terminus assumed): the inhibition at 350 µg/mL in experiment [1] (Table 2) amounted to 14.6%. Moreover, the IC50 in experiment [1] (setting [5]) is 9450 µM. In the case of “GAIGPA [Example 12, Gly-Ala-Ile-Gly-Pro-Ala]”, the inhibition at 350 µg/mL in experiment [1] (Table 1) was 71.5%. Further, the IC50 in experiment [1] (setting [4]) turned out to be 285 µM.

With “GAIGPS [Example 13, Gly-Ala-Ile-Gly-Pro-Ser]”, the inhibition at 350 µg/mL in experiment [1] (Table 1) was 70.4%. Moreover, the half-maximal inhibitory concentration (IC50) in experiment [1] (setting [4]) was 314 µM. As for GAVGP [Example 15, Gly-Ala-Val-Gly-Pro], the inhibition at 350 µg/mL in experiment [1] (Table 1) was 40.9%. In addition, in experiment [1] (setting [4]), the IC50 is 1200 µM. The matching figures for “GAVGPA [Example 14, Gly-Ala-Val-Gly-Pro-Ala]”: 63.7% and 437 µM. Consider “GPAGPI [Example 4, Gly-Pro-Ala-Gly-Pro-Ile]”, for which, in experiment [1] (setting [4]), the IC50 came out at 50 µM.

Regarding “GPAGPR [Example 2, Gly-Pro-Ala-Gly-Pro-Arg]”, in experiment [1] (setting [4]), the half-maximal inhibitory concentration (IC50) stood at 80 µM. In turn, “GPIGPV [Example 6, Gly-Pro-Ile-Gly-Pro-Val]” gave an IC50 in experiment [1] of 9.3 µM. Take “GPLGPV [Example 5, Gly-Pro-Leu-Gly-Pro-Val]”: in experiment [1] (setting [4]), the IC50 amounted to 24 µM. In the case of “Gly-Ala-Hyp (Gly-Ala-[Hyp]) [compound 2, reference compound]”, in experiment [1] (Table 1), the “Inhibition rate (%) at 0.35 mg/ml time” value was determined as 0%. The IC50 value entry in experiment [1] (setting [6]) is recorded as “No inhibitory”.

As to “Gly-Pro-Hyp (Gly-Pro-[Hyp]) [Comparative Example 1, reference compound]”, in experiment [1] (Table 1), the “Inhibition rate (%) at 0.35 mg/ml time” value is reported as 0%. Besides, in experiment [1] (setting [6]), the IC50 value entry is given as “No inhibitory”. As for “H-GPAGP-OH [Example 1, Gly-Pro-Ala-Gly-Pro]”, the inhibition at 350 µg/mL in experiment [1] (Table 1) worked out at 95.8%. The IC50 in experiment [1] (setting [4]) was 60 µM. In the case of LPGPA [Example 18, Leu-Pro-Gly-Pro-Ala], the inhibition at 350 µg/mL in experiment [1] (Table 2) worked out at 94.9%. The IC50 in experiment [1] (setting [5]) turned out to be 63 µM.

B1: Gly-Pro-Gln (peptide)
peptide: GPQ
Regarding B1, in experiment [2], the “IC50 value” was found to be 310 µM and the “Inhibition rate (%) at 0.35 mg/ml time” value stood at 80.2%.

B2: Leu-Pro-Gly-Pro-Ala (peptide)
peptide: LPGPA
As for B2, in experiment [3], the “IC50 value” came out at 63 µM and the “Inhibition rate (%) at 0.35 mg/ml time” value was 94.9%.

B3: Gly-Ala-Hyp (peptide)
peptide: Gly-Ala-[Hyp]
B3: the “Inhibition rate (%) at 0.35 mg/ml time” value in experiment [2] stood at 0%.

B4: Gly-Pro-Ala-Gly-Pro-Arg (peptide)
peptide: GPAGPR
For B4, in experiment [2], the “IC50 value” worked out at 80 µM.

B5: Gly-Ala-Val-Gly-Pro (peptide)
peptide: GAVGP
For the molecule B5, in experiment [2], the “IC50 value” is 1200 µM and the “Inhibition rate (%) at 0.35 mg/ml time” value was found to be 40.9%.

B6: Gly-Pro-Pro (peptide)
peptide: GPP
Consider B6, for which, in experiment [2], the “IC50 value” is 78200 µM and the “Inhibition rate (%) at 0.35 mg/ml time” value came out at 10.2%.

B7: Gly-Ala-Val-Gly-Pro-Ala (peptide)
peptide: GAVGPA
On to B7, for which, in experiment [2], the “IC50 value” is 437 µM and the “Inhibition rate (%) at 0.35 mg/ml time” value is 63.7%.

B8: Ala-Pro-Gly (peptide)
peptide: APG
In the case of B8, in experiment [3], the “IC50 value” turned out to be 30 µM and the “Inhibition rate (%) at 0.35 mg/ml time” value came to 98.7%.

B9: Gly-Pro-Ala-Gly (peptide)
peptide: GPAG
Take B9: the “IC50 value” in experiment [2] was 150 µM.

B10: Leu-Hyp (peptide)
peptide: Leu-[Hyp]
For B10, in experiment [3], the “IC50 value” came out at 1320 µM and the “Inhibition rate (%) at 0.35 mg/ml time” value stood at 48.6%.

B11: Gly-Pro-Ile-Gly-Pro-Val (peptide)
peptide: GPIGPV
Consider B11, for which the “IC50 value” in experiment [2] came to 9.3 µM.

B12: Gly-Pro-Ala-Gly-Pro-Ile (peptide)
peptide: GPAGPI
Regarding B12, the “IC50 value” in experiment [2] came to 50 µM.

B13: Gly-Ala-Ile-Gly-Pro-Ala (peptide)
peptide: GAIGPA
Regarding B13, in experiment [2], the “IC50 value” turned out to be 285 µM and the “Inhibition rate (%) at 0.35 mg/ml time” value was 71.5%.

B14: Leu-Pro (peptide)
peptide: LP
As for B14, in experiment [3], the “IC50 value” was 110 µM and the “Inhibition rate (%) at 0.35 mg/ml time” value was 92.1%.

B15: Gly-Pro-Val (peptide)
peptide: GPV
With B15, in experiment [2], the “IC50 value” was 370 µM and the “Inhibition rate (%) at 0.35 mg/ml time” value was determined as 76.5%.

B16: Gly-Pro-Ala-Gly-Pro-Hyp (peptide)
peptide: GPAGP[Hyp]
Regarding B16, in experiment [2], the “IC50 value” was 70 µM.

B17: Gly-Ala-Ile-Gly-Pro-Ser (peptide)
peptide: GAIGPS
Regarding B17, in experiment [2], the “IC50 value” came to 314 µM and the “Inhibition rate (%) at 0.35 mg/ml time” value was found to be 70.4%.

B18: Gly-Pro-Hyp (peptide)
peptide: Gly-Pro-[Hyp]
Take B18: the “Inhibition rate (%) at 0.35 mg/ml time” value in experiment [2] stood at 0%.

B19: Gly-Pro-Leu-Gly-Pro-Val (peptide)
peptide: GPLGPV
With B19, the “IC50 value” in experiment [2] is 24 µM.

B20: Gly-Pro-Ala-Gly-Pro (peptide)
peptide: GPAGP
Turning to B20, in experiment [2], the “IC50 value” amounted to 60 µM and the “Inhibition rate (%) at 0.35 mg/ml time” value was 95.8%.

B21: Gly-Pro-Glu (peptide)
peptide: GPE
Turning to B21, in experiment [2], the “IC50 value” came to 194 µM and the “Inhibition rate (%) at 0.35 mg/ml time” value came out at 86.4%.

B22: Gly-Ala (peptide)
peptide: GA
With B22, in experiment [2], the “IC50 value” was determined as 3340 µM and the “Inhibition rate (%) at 0.35 mg/ml time” value was determined as 42.5%.

B23: Leu-Pro-Gly (peptide)
peptide: LPG
Regarding B23, the “IC50 value” in experiment [3] worked out at 50 µM.
